In patent US11969464B2, “Amidated peptides and their deamidated counterparts displayed by HLA-A*02 for use in immunotherapy against different types of cancers” (Immatics Biotechnologies GmbH, priority 2020, dated 2024):

Tests used:
HLA-A*02:01 = HLA-A*02:01 (Homo sapiens, UniProt P04439, D140Y/D185E/D98H/E176V/E277Q/G131W/G231S/I119V/I121R/I166T/I218V/L300P/L318F/N151K/N90K/P208A/P217A/Q86G/Q94H/R138H/R169H/T345S); test: MHC binding assay (UV-ligand exchange, anti-β2m ELISA); settings: peptide exchange yield, binding to HLA-A*02:01
Text: Candidate peptides for T cell based therapies according to the present invention were further tested for their MHC binding capacity (affinity). The individual peptide-MHC complexes were produced by UV-ligand exchange, where a UV-sensitive peptide is cleaved upon UV-irradiation and exchanged with the peptide of interest as analyzed. Only peptide candidates that can effectively bind and stabilize the peptide-receptive MHC molecules prevent dissociation of the MHC complexes. To determine the yield of the exchange reaction, an ELISA was performed based on the detection of the light chain (β2m) of stabilized MHC complexes. The assay was performed as generally described in Rodenko et al. (Rodenko et al., 2006).
96 well MAXISorp plates (NUNC) were coated over night with 2 μg/ml streptavidin in PBS at room temperature, washed 4× and blocked for 1 h at 37° C. in 2% BSA containing blocking buffer. Refolded HLA-A*02:01/MLA-001 monomers served as standards, covering the range of 15-500 ng/ml. Peptide-MHC monomers of the UV-exchange reaction were diluted 100-fold in blocking buffer. Samples were incubated for 1 h at 37° C., washed four times, incubated with 2 μg/ml HRP conjugated anti-β2m for 1 h at 37° C., washed again and detected with TMB solution that is stopped with […]. Absorption was measured at 450 nm. Candidate peptides that show a high exchange yield (preferably higher than 50%, most preferred higher than 75%) are generally preferred for a generation and production of antibodies or fragments thereof, and/or T cell receptors or fragments thereof, as they show sufficient avidity to the MHC molecules and prevent dissociation of the MHC complexes.

CD8+ T cells = test: In vitro T cell priming assay with aAPCs loaded with peptide/MHC complexes and anti-CD28, pMHC multimer readout; assay type: cell-based, human; settings: percentage of positive wells and donors (among evaluable), healthy HLA-A*02+ donors
Text: In order to obtain information regarding the immunogenicity of the TUMAPs of the present invention, the inventors performed investigations using an in vitro T cell priming assay based on repeated stimulations of CD8+ T cells with artificial antigen presenting cells (aAPCs) loaded with peptide/MHC complexes and anti-CD28 antibody.
In order to perform in vitro stimulations by artificial antigen presenting cells loaded with peptide-MHC complex (pMHC) and anti-CD28 antibody, the inventors first isolated CD8+ T cells from fresh HLA-A*02 leukapheresis products via positive selection using CD8 microbeads (Miltenyi Biotec, Bergisch-Gladbach, Germany) of healthy donors obtained from the University clinics Mannheim, Germany, after informed consent.
PBMCs and isolated CD8+ lymphocytes were incubated in T cell medium (TCM) until use consisting of RPMI-Glutamax (Invitrogen, Karlsruhe, Germany) supplemented with 10% heat inactivated human AB serum (PAN-Biotech, Aidenbach, Germany), 100 U/ml Penicillin/100 μg/ml Streptomycin (Cambrex, Cologne, Germany), 1 mM sodium pyruvate (CC Pro, Oberdorla, Germany), 20 μg/ml Gentamycin (Cambrex). 2.5 ng/ml IL-7 (PromoCell, Heidelberg, Germany) and 10 U/ml IL-2 (Novartis Pharma, Nurnberg, Germany) were also added to the TCM at this step.
Generation of pMHC/anti-CD28 coated beads, T cell stimulations and readout was performed in a highly defined in vitro system using four different pMHC molecules per stimulation condition and 8 different pMHC molecules per readout condition.
The purified co-stimulatory mouse IgG2a anti human CD28 Ab 9.3 (Jung et al., 1987) was chemically biotinylated using Sulfo-N-hydroxysuccinimidobiotin as recommended by the manufacturer (Perbio, Bonn, Germany). Beads used were 5.6 μm diameter streptavidin coated polystyrene particles (Bangs Laboratories, Illinois, USA).
800.000 beads/200 μl were coated in 96-well plates in the presence of 4×12.5 ng different biotin-pMHC, washed and 600 ng biotin anti-CD28 were added subsequently in a volume of 200 μl. Stimulations were initiated in 96-well plates by co-incubating 1×10^6 CD8+ T cells with 2×10^5 washed coated beads in 200 μl TCM supplemented with 5 ng/ml IL-12 (PromoCell) for 3 days at 37° C. Half of the medium was then exchanged by fresh TCM supplemented with 80 U/ml IL-2 and incubating was continued for 4 days at 37° C. This stimulation cycle was performed for a total of three times. For the pMHC multimer readout using 8 different pMHC molecules per condition, a two-dimensional combinatorial coding approach was used as previously described (Andersen et al., 2012) with minor modifications encompassing coupling to 5 different fluorochromes. Finally, multimeric analyses were performed by staining the cells with Live/dead near IR dye (Invitrogen, Karlsruhe, Germany), CD8-FITC antibody clone SK1 (BD, Heidelberg, Germany) and fluorescent pMHC multimers. For analysis, a BD LSRII SORP cytometer equipped with appropriate lasers and filters was used. Peptide specific cells were calculated as percentage of total CD8+ cells. Evaluation of multimeric analysis was done using the FlowJo software (Tree Star, Oregon, USA). In vitro priming of specific multimer+CD8+ lymphocytes was detected by comparing to negative control stimulations.

Substance | Peptide exchange (HLA-A*02:01) | Wells positive [%] (CD8+ T cells)
6 (NLYNDLTNV; peptide displayed by HLA-A*02) [compound 6] | +++ (≥50% = +++) | + (<20% = +)
7 (ALADLTGTV; peptide displayed by HLA-A*02) [compound 7] | ++++ (≥75% = ++++) | + (<20% = +)
8 (KLAPDLTEL; peptide displayed by HLA-A*02) [compound 8] | +++ (≥50% = +++) | + (<20% = +)
47 (VIDSTLVKV; peptide displayed by HLA-A*02) [compound 47] | +++ (≥50% = +++) | ++ (20%-49% = ++)
65 (ILLDKSTVL; peptide displayed by HLA-A*02) [compound 65] | ++++ (≥75% = ++++) | + (<20% = +)
76 (SLLRDFTLV; peptide displayed by HLA-A*02) [compound 76] | ++++ (≥75% = ++++) | + (<20% = +)
96 (KLDASLPAL; peptide displayed by HLA-A*02) [compound 96] | ++++ (≥75% = ++++) | + (<20% = +)
97 (KLLDGSQRV; peptide displayed by HLA-A*02) [compound 97] | +++ (≥50% = +++) | + (<20% = +)
98 (NLLADVSTV; peptide displayed by HLA-A*02) [compound 98] | +++ (≥50% = +++) | + (<20% = +)
100 (SLLFQDITL; peptide displayed by HLA-A*02) [compound 100] | ++++ (≥75% = ++++) | + (<20% = +)
101 (TLDATVVEL; peptide displayed by HLA-A*02) [compound 101] | ++++ (≥75% = ++++) | ++ (20%-49% = ++)
